Measurements as given in publication PMC8285061.

T1: His6-Pal1 (Pal1-deltaN) (Saccharomyces cerevisiae, UniProt Q05518 165-499)
T1 sequence: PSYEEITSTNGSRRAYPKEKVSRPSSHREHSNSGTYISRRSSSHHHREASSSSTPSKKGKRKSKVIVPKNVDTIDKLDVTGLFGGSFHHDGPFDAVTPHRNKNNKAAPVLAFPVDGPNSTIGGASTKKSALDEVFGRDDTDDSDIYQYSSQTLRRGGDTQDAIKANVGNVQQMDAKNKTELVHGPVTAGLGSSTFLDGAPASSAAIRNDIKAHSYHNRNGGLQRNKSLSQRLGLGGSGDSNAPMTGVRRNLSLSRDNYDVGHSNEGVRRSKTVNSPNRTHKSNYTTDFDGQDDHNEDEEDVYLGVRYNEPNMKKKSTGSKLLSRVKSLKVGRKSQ

T2: His6-Pal2 (Pal2-deltaN65) (Saccharomyces cerevisiae, UniProt P38809 65-366)
T2 sequence: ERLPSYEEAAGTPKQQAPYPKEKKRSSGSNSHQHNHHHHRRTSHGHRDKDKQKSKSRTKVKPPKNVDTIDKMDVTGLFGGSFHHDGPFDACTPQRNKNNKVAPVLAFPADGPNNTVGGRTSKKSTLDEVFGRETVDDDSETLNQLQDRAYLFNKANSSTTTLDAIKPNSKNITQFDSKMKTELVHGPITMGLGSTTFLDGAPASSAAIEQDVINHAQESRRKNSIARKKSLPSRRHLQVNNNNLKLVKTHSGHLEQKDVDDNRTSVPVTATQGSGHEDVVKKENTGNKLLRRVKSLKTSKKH

B1: Flc-3'-BE (HAC1 3'-UTR bipartite element) (structured_RNA)
RNA: CGUGAGGUUGGCGCGCCCUCCUACAAUUAUUUGUGGCGACUGGGCAGCGACACUGAACA
B2: unlabeled 3'-BE transcript (structured_RNA)
RNA: GGGCGUGAGGUUGGCGCGCCCUCCUACAAUUAUUUGUGGCGACUGGGCAGCGACACUGAACA

Legend:
His6-Ypt1 = His6-Ypt1 (UniProt P01123 1-206); experiment: EMSA
His6-Pal1 (Pal1-deltaN) = biological target: T1, His6-Pal1 (Pal1-deltaN); experiment: EMSA
[1] = biological target: T2, His6-Pal2 (Pal2-deltaN65); experiment: EMSA
[2] = biological target: T2, His6-Pal2 (Pal2-deltaN65); experiment: competition

Chain of His6-Ypt1 (P01123 whole entry): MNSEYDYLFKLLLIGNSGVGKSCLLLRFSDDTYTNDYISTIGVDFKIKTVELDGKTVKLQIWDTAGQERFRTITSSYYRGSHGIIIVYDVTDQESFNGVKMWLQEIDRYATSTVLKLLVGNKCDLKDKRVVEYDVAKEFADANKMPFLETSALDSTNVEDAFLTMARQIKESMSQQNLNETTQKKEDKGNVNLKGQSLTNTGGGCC

Binder | binding result (His6-Ypt1) | binding result (His6-Pal1 (Pal1-deltaN)) | binding result [1] | binding result [2]
B1 | no binding | binds | binds | –
B2 | – | – | – | binds
